Experimental findings from patent US20230212256A1 (University of Texas, published 2023) are described below.

One experiment addresses T1, HLA-A*0101 (human).
T1 construct: whole, on cells; The peptide was eluted from total HLA class I immunoprecipitated with W6/32; also called HLA-A1; HLAA1
Put plainly: HLA class I immunoprecipitation, acid elution, tandem MS.

The target of experiment [1] is T2, VGLL1 (Vestigial-like 1) peptide on HLA-A*01:01 (human).
T2 peptide: LSELETPGKY
The experiment can be described thus: multimer staining.

Description for HLA-A*0101: Protein A/G Ultralink resin beads were used to immunoprecipate HLA class I molecules and HLA-bound peptides were then eluted with 0.1M acetic acid. HLA-A, B, C isolation was confirmed by Western blot analysis, then HLA-positive elutes were analyzed by tandem mass spectrometry (MS/MS). HLA class I protein recovery was semi-quantitatively assessed by rating Western blot band intensity on a scale from 0 (not detectable) to 4 (highest intensity). Tumor-associated HLA-bound peptides were injected onto HPLC system (Dionex 3000 RSLC), and separated by reverse-phase chromatography in 0.1% formic acid water-acetonitrile on 1.8 μm C18 (Agilent Technologies) in the MS/MS discovery phase. Peptides were analyzed on an Orbitrap Elite mass spectrometer (Thermo-Fisher) using data-dependent acquisition.

B1: VGLL1-derived 10-mer peptide LSELETPGKY (peptide)
peptide: LSELETPGKY
notes: This is the native peptide eluted from immunoprecipitated HLA class I. The 13C/15N-lysine labeled synthetic peptide served only as the MS standard; also called VGLL1 231-240 peptide; VGLL1 peptide
As to B1, the binding result in the experiment with HLA-A*0101 is “binds”.

B2: VGLL1 TCR #2 (TCR, V domains shown)
Valpha: ENVEQHPSTLSVQEGDSAVIKCTYSDSASNYFPWYKQELGKRPQLIIDIRSNVGEKKDQRIAVTLNKTAKHFSLHITETQPEDSAVYFCAARGLTGGGNKLTFGTGTQLKVEL
Vbeta: GVTQSPTHLIKTRGQQVTLRCSPKSGHDTVSWYQQALGQGPQFIFQYYEEEERQRGNFPDRFSGHQFPNYSSELNVNALLLGDSALYLCASSVGTGITEAFFGQGTRLTVV
For the molecule B2, the binding result in experiment [1] was “recognises”.

B3: VGLL1 TCR #4 (TCR, V domains shown)
Valpha: QQQVKQSPQSLIVQKGGISIINCAYENTAFDYFPWYQQFPGKGPALLIAIRPDVSEKKEGRFTISFNKSAKQFSLHIMDSQPGDSATYFCAAVRYNFNKFYFGSGTKLNVKP
Vbeta: GVTQSPTHLIKTRGQQVTLRCSPKSGHDTVSWYQQALGQGPQFIFQYYEEEERQRGNFPDRFSGHQFPNYSSELNVNALLLGDSALYLCASSVGTGITEAFFGQGTRLTVV
B3: in experiment [1], the binding result was “recognises”.

B4: VGLL1 TCR #3 (TCR, V domains shown)
Valpha: ENVEQHPSTLSVQEGDSAVIKCTYSDSASNYFPWYKQELGKRPQLIIDIRSNVGEKKDQRIAVTLNKTAKHFSLHITETQPEDSAVYFCAAIPNSGGYQKVTFGIGTKLQVIP
Vbeta: GVTQSPTHLIKTRGQQVTLRCSPKSGHDTVSWYQQALGQGPQFIFQYYEEEERQRGNFPDRFSGHQFPNYSSELNVNALLLGDSALYLCASSVGTGITEAFFGQGTRLTVV
Take B4: the binding result in experiment [1] is “recognises”.

B5: VGLL1 TCR #1 (TCR, V domains shown)
Valpha: AQKVTQAQTEISVVEKEDVTLDCVYETRDTTYYLFWYKQPPSGELVFLIRRNSFDEQNEISGRYSWNFQKSTSSFNFTITASQVVDSAVYFCALSPGANSKLTFGKGITLSVRP
Vbeta: DAGVTQSPTHLIKTRGQQVTLRCSPKSGHDTVSWYQQALGQGPQFIFQYYEEEERQRGNFPDRFSGHQFPNYSSELNVNALLLGDSALYLCASSVGTGITEAFFGQGTRLTVV
For the molecule B5, the binding result in experiment [1] is “recognises”.
